Molecular target: KIR2DL1 on human NK cell clones (human) (UniProt P43626)
Assay: cell-based or functional assay

Sequence of UniProt P43626 (P43626 22-348): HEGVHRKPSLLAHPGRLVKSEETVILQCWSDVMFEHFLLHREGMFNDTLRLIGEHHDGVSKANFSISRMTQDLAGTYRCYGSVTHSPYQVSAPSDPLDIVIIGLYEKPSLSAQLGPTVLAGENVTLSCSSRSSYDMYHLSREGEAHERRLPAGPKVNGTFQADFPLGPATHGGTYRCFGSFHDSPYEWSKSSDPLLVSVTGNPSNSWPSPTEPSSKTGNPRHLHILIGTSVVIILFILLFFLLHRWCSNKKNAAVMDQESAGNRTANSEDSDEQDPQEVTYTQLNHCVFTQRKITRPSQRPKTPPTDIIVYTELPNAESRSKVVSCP

EB6 monoclonal antibody (IgG1, anti KIR2DL1)
lysis of autologous Cw4+ PHA blasts by NK cells with Campath: > 30%
